Data from article PMC9242591 (Science Advances, 2022).
Each block holds one binder with its values, some of them ahead of it.

What was measured:
[1] = target: T1, His-tagged NIN-LIKE PROTEIN 7 (His-NLP7) (Arabidopsis thaliana, UniProt Q84TH9 1-959); experiment: pull-down
T1 sequence (looked up): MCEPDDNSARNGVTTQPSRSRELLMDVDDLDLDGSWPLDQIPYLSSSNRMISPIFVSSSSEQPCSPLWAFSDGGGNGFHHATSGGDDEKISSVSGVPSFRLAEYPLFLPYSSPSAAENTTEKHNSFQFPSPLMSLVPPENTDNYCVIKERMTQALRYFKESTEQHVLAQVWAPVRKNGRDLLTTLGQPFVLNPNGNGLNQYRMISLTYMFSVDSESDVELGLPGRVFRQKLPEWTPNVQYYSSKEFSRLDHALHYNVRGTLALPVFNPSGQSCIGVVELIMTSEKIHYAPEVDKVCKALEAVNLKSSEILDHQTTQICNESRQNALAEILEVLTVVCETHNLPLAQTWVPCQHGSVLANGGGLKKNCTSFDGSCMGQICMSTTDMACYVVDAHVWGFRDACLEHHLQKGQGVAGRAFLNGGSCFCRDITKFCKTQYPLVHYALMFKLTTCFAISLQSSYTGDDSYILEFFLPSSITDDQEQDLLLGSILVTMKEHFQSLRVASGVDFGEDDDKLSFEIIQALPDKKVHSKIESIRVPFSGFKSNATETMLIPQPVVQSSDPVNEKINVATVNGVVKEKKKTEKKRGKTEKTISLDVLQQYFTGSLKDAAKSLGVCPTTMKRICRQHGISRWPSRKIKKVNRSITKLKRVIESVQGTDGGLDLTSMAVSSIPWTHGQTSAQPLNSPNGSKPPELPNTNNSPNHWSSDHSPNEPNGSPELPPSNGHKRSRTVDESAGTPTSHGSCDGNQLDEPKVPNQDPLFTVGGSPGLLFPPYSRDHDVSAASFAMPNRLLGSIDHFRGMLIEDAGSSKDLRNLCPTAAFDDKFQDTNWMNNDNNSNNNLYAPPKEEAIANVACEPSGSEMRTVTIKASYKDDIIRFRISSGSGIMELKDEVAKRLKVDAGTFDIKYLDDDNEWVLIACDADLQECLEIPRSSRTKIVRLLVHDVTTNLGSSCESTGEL

[2] = target: His-NLP7 (RWP-RK) (Arabidopsis thaliana, UniProt Q84TH9 535-733); experiment: EMSA

binding result [1]: binds
B1: GST-tagged CALCIUM-DEPENDENT PROTEIN KINASE 28 (GST-CPK28) (enzyme, Arabidopsis thaliana, UniProt Q9FKW4 1-523, looked up)
chain: MGVCFSAIRVTGASSSRRSSQTKSKAAPTPIDTKASTKRRTGSIPCGKRTDFGYSKDFHDHYTIGKLLGHGQFGYTYVAIHRPNGDRVAVKRLDKSKMVLPIAVEDVKREVQILIALSGHENVVQFHNAFEDDDYVYIVMELCEGGELLDRILSKKGNRYSEKDAAVVVRQMLKVAGECHLHGLVHRDMKPENFLFKSAQLDSPLKATDFGLSDFIKPGKRFHDIVGSAYYVAPEVLKRRSGPESDVWSIGVITYILLCGRRPFWDRTEDGIFKEVLRNKPDFSRKPWATISDSAKDFVKKLLVKDPRARLTAAQALSHAWVREGGNATDIPVDISVLNNLRQFVRYSRLKQFALRALASTLDEAEISDLRDQFDAIDVDKNGVISLEEMRQALAKDLPWKLKDSRVAEILEAIDSNTDGLVDFTEFVAAALHVHQLEEHDSEKWQLRSRAAFEKFDLDKDGYITPEELRMHTGLRGSIDPLLDEADIDRDGKISLHEFRRLLRTASISSQRAPSPAGHRNLR

B2: CBF1-NREL probe (dsDNA)
DNA 1: AAAAGTCTCTTTACAAGGGTCAAA
DNA 2: TTTGACCCTTGTAAAGAGACTTTT
binding result [2]: binds
